Bridge positions count the residues as written; N and C are the ends. Square brackets hold non-standard residues; d marks the D form. Ends that are not written are not given here. Hyp = O=C(O)[C@@H]1C[C@@H](O)CN1; Cit = NC(=O)NCCC[C@H](N)C(=O)O
T1: hAMY3R (human, UniProt P30988)
T1 sequence 1: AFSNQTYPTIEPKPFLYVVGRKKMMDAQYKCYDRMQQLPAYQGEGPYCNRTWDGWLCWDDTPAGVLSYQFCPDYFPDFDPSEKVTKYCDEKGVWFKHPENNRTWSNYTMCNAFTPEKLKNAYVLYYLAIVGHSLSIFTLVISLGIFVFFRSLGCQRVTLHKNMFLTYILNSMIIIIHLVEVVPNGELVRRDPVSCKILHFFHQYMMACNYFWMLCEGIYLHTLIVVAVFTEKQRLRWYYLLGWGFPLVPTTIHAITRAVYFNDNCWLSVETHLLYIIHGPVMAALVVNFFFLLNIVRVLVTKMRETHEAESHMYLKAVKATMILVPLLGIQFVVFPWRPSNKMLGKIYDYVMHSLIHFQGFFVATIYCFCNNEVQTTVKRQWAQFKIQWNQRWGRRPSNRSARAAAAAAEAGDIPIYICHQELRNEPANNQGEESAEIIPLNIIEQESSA
T1 sequence 2: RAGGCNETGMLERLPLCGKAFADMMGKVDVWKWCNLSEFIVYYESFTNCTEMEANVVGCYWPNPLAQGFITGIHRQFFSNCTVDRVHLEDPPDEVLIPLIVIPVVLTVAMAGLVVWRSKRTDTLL

B1: SEQ ID NO: 291 (peptide)
peptide: GCRFGTCTVQ[Cit]LAHQIYQFTDKDKDNVAPRTNISPQG[Hyp]-NH2
modifications: disulfide 2-7 (inferred); ends not checked
B2: SEQ ID NO: 276 (peptide)
peptide: KCNTATCTVQ[Cit]LAHQIYQATDKDKDNVAPPTNVGSNG[Hyp]-NH2
modifications: disulfide 2-7 (inferred); ends not checked
B3: SEQ ID NO: 30 (peptide)
peptide: KCNTATCTVQRLAHQIYQFTDKDKDNVPPTNVGSNG[Hyp]-NH2
modifications: disulfide 2-7 (inferred); not fully specified; ends not checked
B4: SEQ ID NO: 299 (peptide)
peptide: GCRTGTCTVQ[Cit]LAHQIYQFTDKDKDNVAPRSKIGPNG[Hyp]-NH2
modifications: disulfide 2-7 (inferred); ends not checked
B5: SEQ ID NO: 278 (peptide)
peptide: GCRFGTCTVQ[Cit]LAHQIYQFTDKDKDNVAPRTNVSPQGY-NH2
modifications: disulfide 2-7 (inferred); ends not checked
B6: SEQ ID NO: 298 (peptide)
peptide: GCRTGTCTVQ[Cit]LAHQIYQFTDKDKDNVAPRTKVGPQGY-NH2
modifications: disulfide 2-7 (inferred); ends not checked
B7: SEQ ID NO: 285 (peptide)
peptide: GCRTGTCTVQ[Cit]LAHQIYQFTDKDKDNVAPRSKVGPQGY-NH2
modifications: disulfide 2-7 (inferred); ends not checked
B8: SEQ ID NO: 288 (peptide)
peptide: GCRFGTCTVQ[Cit]LAHQIYQFTDKDKDNVAPRTKVSPNG[Hyp]-NH2
modifications: disulfide 2-7 (inferred); ends not checked
B9: SEQ ID NO: 297 (peptide)
peptide: GCRTGTCTVQ[Cit]LAHQIYQFTDKDKDNVAPRSNIGPNG[Hyp]-NH2
modifications: disulfide 2-7 (inferred); ends not checked
B10: SEQ ID NO: 29 (peptide)
peptide: KCNTATCTVQRLAHQIYQFTKDKDNVAPPTNVGSNG[Hyp]-NH2
modifications: disulfide 2-7 (inferred); not fully specified; ends not checked
B11: SEQ ID NO: 293 (peptide)
peptide: GCRFGTCTVQ[Cit]LAHQIYQFTDKDKDNVAPRSNVSPQG[Hyp]-NH2
modifications: disulfide 2-7 (inferred); ends not checked
B12: SEQ ID NO: 279 (peptide)
peptide: GCRFGTCTVQ[Cit]LAHFLYQFTDKDKDNVAPRTKVGSNGY-NH2
modifications: disulfide 2-7 (inferred); ends not checked
B13: SEQ ID NO: 282 (peptide)
peptide: GCRFGTCTVQ[Cit]LAHFLYQFTDKDGAIAPRTKIGSQGY-NH2
modifications: disulfide 2-7 (inferred); ends not checked
B14: SEQ ID NO: 301 (peptide)
peptide: GCRTGTCTVQ[Cit]LAHQIYQFTDKDKDNVAPRTKIGPQG[Hyp]-NH2
modifications: disulfide 2-7 (inferred); ends not checked
B15: SEQ ID NO: 283 (peptide)
peptide: GCRFGTCTVQ[Cit]LAHQIYQFTDKDKDNVAPRTNVSPQG[Hyp]-NH2
modifications: disulfide 2-7 (inferred); ends not checked
B16: SEQ ID NO: 281 (peptide)
peptide: GCRTGTCTVQ[Cit]LAHQIYQFTDKDKDNVAPRSNVGPQG[Hyp]-NH2
modifications: disulfide 2-7 (inferred); ends not checked
B17: SEQ ID NO: 302 (peptide)
peptide: GCRTGTCTVQ[Cit]LAHQIYQFTDKDKDNVAPRTNVSPNG[Hyp]-NH2
modifications: disulfide 2-7 (inferred); ends not checked
B18: SEQ ID NO: 287 (peptide)
peptide: GCRFGTCTVQ[Cit]LAHQIYQFTDKDKDNVAPRTKVSPQG[Hyp]-NH2
modifications: disulfide 2-7 (inferred); ends not checked
B19: SEQ ID NO: 303 (peptide)
peptide: GCRTGTCTVQ[Cit]LAHQIYQFTDKDKDNVAPRSNIGPQG[Hyp]-NH2
modifications: disulfide 2-7 (inferred); ends not checked
B20: SEQ ID NO: 284 (peptide)
peptide: GCRFGTCTVQ[Cit]LAHQIYQFTDKDKDNVAPRSKIGPQG[Hyp]-NH2
modifications: disulfide 2-7 (inferred); ends not checked
B21: SEQ ID NO: 292 (peptide)
peptide: GCRTGTCTVQ[Cit]LAHQIYQFTDKDKDNVAPRTKVGPQG[Hyp]-NH2
modifications: disulfide 2-7 (inferred); ends not checked
B22: SEQ ID NO: 277 (peptide)
peptide: GCRTGTCTVQ[Cit]LAHQIYQFTDKDKDNVAPRTKIGPNG[Hyp]-NH2
modifications: disulfide 2-7 (inferred); ends not checked
B23: SEQ ID NO: 280 (peptide)
peptide: GCRTGTCTVQ[Cit]LAHQIYQFTDKDKDNVAPRTNIGPQG[Hyp]-NH2
modifications: disulfide 2-7 (inferred); ends not checked
B24: SEQ ID NO: 300 (peptide)
peptide: GCRFGTCTVQ[Cit]LAHQIYQFTDKDKDNVAPRSNISPQG[Hyp]-NH2
modifications: disulfide 2-7 (inferred); ends not checked
B25: SEQ ID NO: 295 (peptide)
peptide: GCRIGTCTVQ[Cit]LAHQIYQFTDKFKDNVAPRSKISPQT[Hyp]-NH2
modifications: disulfide 2-7 (inferred); ends not checked
B26: SEQ ID NO: 296 (peptide)
peptide: GCRWGTCTVQ[Cit]LAHQIYQFTDKDKDNVAPRSKISPQT[Hyp]-NH2
modifications: disulfide 2-7 (inferred); ends not checked
B27: SEQ ID NO: 304 (peptide)
peptide: GCRTGTCTVQ[Cit]LAHQIYQFTDKDKDNVAPRSNVSPNG[Hyp]-NH2
modifications: disulfide 2-7 (inferred); ends not checked
B28: SEQ ID NO: 286 (peptide)
peptide: GCRFGTCTVQ[Cit]LAHQIYQFTDKDKDNVAPRSNVSPQGY-NH2
modifications: disulfide 2-7 (inferred); ends not checked
B29: SEQ ID NO: 294 (peptide)
peptide: GCRFGTCTVQ[Cit]LAHQIYQFTDKDKDNVAPRTKISPQG[Hyp]-NH2
modifications: disulfide 2-7 (inferred); ends not checked
B30: SEQ ID NO: 305 (peptide)
peptide: GCRFGTCTVQ[Cit]LAHQIYQFTDKDKDNVAPRSKVSPQG[Hyp]-NH2
modifications: disulfide 2-7 (inferred); ends not checked
B31: SEQ ID NO: 289 (peptide)
peptide: GCRFGTCTVQ[Cit]LAHQIYQFTDKDKDNVAPRSNVGPQG[Hyp]-NH2
modifications: disulfide 2-7 (inferred); ends not checked
B32: SEQ ID NO: 290 (peptide)
peptide: GCRTGTCTVQ[Cit]LAHQIYQFTDKDKDNVAPRSKVGPNG[Hyp]-NH2
modifications: disulfide 2-7 (inferred); ends not checked

Target: T1, hAMY3R
Experiment: cell-based or functional assay

Row | hAMY3R EC50 (cAMP) | Binder
1 | 0.064 nM | B1
2 | 0.056 nM | B2
3 | 0.008 nM | B3
4 | 0.11 nM | B4
5 | 0.011 nM | B5
6 | 0.057 nM | B6
7 | 0.157 nM | B7
8 | 0.03 nM | B8
9 | 0.026 nM | B9
10 | 0.008 nM | B10
11 | 0.063 nM | B11
12 | 0.013 nM | B12
13 | 0.143 nM | B13
14 | 0.138 nM | B14
15 | 0.035 nM | B15
16 | 0.034 nM | B16

Row | hAMY3R EC50 (cAMP) | Binder
17 | 0.071 nM | B17
18 | 0.055 nM | B18
19 | 0.103 nM | B19
20 | 0.028 nM | B20
21 | 0.07 nM | B21
22 | 0.058 nM | B22
23 | 0.024 nM | B23
24 | 0.076 nM | B24
25 | 0.194 nM | B25
26 | 0.392 nM | B26
27 | 0.139 nM | B27
28 | 0.025 nM | B28
29 | 0.045 nM | B29
30 | 0.085 nM | B30
31 | 0.005 nM | B31
32 | 0.047 nM | B32

Target: hAM1R (human, UniProt Q16602)
Experiment: cell-based or functional assay

Row | hAM1R EC50 (cAMP) | Binder
33 | > 5000 nM | B1
34 | > 5000 nM | B2
35 | > 5000 nM | B3
36 | > 5000 nM | B4
37 | 155 nM | B5
38 | > 5000 nM | B6
39 | > 5000 nM | B7
40 | > 5000 nM | B8
41 | > 5000 nM | B9
42 | > 5000 nM | B10
43 | > 5000 nM | B11
44 | 241 nM | B12
45 | 3880 nM | B13
46 | > 5000 nM | B14
47 | > 5000 nM | B15
48 | > 5000 nM | B16

Row | hAM1R EC50 (cAMP) | Binder
49 | 4330 nM | B17
50 | > 5000 nM | B18
51 | > 5000 nM | B19
52 | 591 nM | B20
53 | > 5000 nM | B21
54 | > 5000 nM | B22
55 | > 5000 nM | B23
56 | > 5000 nM | B24
57 | > 5000 nM | B25
58 | > 5000 nM | B26
59 | > 5000 nM | B27
60 | 139 nM | B28
61 | > 5000 nM | B29
62 | > 5000 nM | B30
63 | 3500 nM | B31
64 | > 5000 nM | B32

From patent publication US12139520B2 (priority 2020, dated 2024)
